Article PMC2683190 (Neurobiology of disease, 2009)

What was measured:
[1] = biological target: T1, soluble LIFR (leukemia inhibitory factor receptor) (UniProt P42702 45-833); test: SPR
T1 sequence (looked up): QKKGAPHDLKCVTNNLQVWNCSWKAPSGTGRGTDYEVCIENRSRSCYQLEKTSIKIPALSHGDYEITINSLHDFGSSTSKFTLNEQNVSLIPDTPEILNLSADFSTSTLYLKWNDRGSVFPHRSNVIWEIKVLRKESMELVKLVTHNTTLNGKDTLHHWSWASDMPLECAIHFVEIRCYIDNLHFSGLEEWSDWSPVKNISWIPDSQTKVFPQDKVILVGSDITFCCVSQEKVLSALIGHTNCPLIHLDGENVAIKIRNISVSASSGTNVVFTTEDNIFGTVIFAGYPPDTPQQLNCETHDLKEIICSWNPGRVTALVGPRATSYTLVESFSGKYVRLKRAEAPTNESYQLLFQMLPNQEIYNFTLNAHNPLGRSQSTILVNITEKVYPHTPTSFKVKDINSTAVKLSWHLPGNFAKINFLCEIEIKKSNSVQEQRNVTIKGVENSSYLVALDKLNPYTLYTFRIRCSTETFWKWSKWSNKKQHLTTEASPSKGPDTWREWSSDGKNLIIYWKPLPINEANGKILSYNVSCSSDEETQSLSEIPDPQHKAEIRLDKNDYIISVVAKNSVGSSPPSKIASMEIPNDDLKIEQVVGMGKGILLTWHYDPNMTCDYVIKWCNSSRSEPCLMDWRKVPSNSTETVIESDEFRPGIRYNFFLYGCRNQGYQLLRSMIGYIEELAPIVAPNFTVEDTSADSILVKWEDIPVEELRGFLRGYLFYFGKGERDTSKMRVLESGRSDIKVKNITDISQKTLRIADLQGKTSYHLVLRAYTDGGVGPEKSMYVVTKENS

[2] = biological target: T2, soluble gp130 (glycoprotein 130) (UniProt P40189 23-619); test: SPR
T2 sequence (looked up): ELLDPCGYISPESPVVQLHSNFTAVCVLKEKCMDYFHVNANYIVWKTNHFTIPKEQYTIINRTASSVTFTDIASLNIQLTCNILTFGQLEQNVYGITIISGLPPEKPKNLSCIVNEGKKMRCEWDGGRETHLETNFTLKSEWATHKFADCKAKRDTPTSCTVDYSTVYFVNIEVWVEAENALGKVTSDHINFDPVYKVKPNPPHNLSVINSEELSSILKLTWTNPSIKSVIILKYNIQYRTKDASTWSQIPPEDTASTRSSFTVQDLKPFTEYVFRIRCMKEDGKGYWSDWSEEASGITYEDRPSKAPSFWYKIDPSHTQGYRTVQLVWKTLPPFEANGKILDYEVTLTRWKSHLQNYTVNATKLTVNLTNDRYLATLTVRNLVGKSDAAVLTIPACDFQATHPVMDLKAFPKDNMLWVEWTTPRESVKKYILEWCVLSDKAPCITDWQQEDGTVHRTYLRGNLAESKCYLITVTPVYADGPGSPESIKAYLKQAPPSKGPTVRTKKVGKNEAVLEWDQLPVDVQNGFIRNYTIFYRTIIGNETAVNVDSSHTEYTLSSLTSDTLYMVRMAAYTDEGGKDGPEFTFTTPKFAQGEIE

B1: GST-LIF (human leukemia inhibitory factor as glutathione-S-transferase fusion protein) (ligand)
chain: not shown
- Kd [1]: 2.93 nM
- koff [1]: 0.00107 s⁻¹
- kon [1]: 366000 M⁻¹ s⁻¹
- Kd [2]: 9.02 nM
- koff [2]: 0.0017 s⁻¹
- kon [2]: 188000 M⁻¹ s⁻¹
